Results from US20130012432A1 (Novo Nordisk, published 2013).
Positions of bridges follow the written chain, without caps; N, C: chain ends. Non-standard residues stand in square brackets, D forms with d. Groups on a side chain read outwards from the residue. Primed or numbered codes have the meaning given here. *: point of attachment. X2 = (2-(2-(16-(tetrazol-5-yl)hexadecanoylamino)ethoxy)ethoxy)acetyl, O=C(CCCCCCCCCCCCCCCc1nn[nH]n1)NCCOCCOCC(=O)*; X5 = NH(2-(2-(2-(17-carboxyheptadecanoylamino)ethoxy)ethoxy)ethyl), O=C(O)CCCCCCCCCCCCCCCCC(=O)NCCOCCOCCN*; X6 = (2-(2-(17-carboxyheptadecanoylamino)ethoxy)ethoxy)acetyl, O=C(O)CCCCCCCCCCCCCCCCC(=O)NCCOCCOCC(=O)*; X3 = (2-(2-(15-carboxypentadecanoylamino)ethoxy)ethoxy)acetyl, O=C(O)CCCCCCCCCCCCCCC(=O)NCCOCCOCC(=O)*; X4 = (2-(2-(16-carboxyhexadecanoylamino)ethoxy)ethoxy)acetyl, O=C(O)CCCCCCCCCCCCCCCC(=O)NCCOCCOCC(=O)*; biscarboxymethyl = Lys(biscarboxymethyl) = Nepsilon-bis(carboxymethyl)-L-lysine; biscarboxymethyl(4) = Lys(biscarboxymethyl) = N6-bis(carboxymethyl)-L-lysine; bis(carboxymethyl) = Lys(biscarboxymethyl) = N6-bis(carboxymethyl)-L-lysine; Palmitoyl(16-(5-tetrazolyl)) = O=C(CCCCCCCCCCCCCCCc1nnn[nH]1)*; biscarboxymethyl(3) = Nepsilon-bis(carboxymethyl) on Lys; biscarboxymethyl″ = N6-bis(carboxymethyl) on L-lysine; Lys(CH2CO2H)2 = N[C@@H](CCCCN(CC(=O)O)CC(=O)O)C(=O)O; C18 diacid = O=C(O)CCCCCCCCCCCCCCCCC(=O)*; C17 diacid = O=C(O)CCCCCCCCCCCCCCCC(=O)*; C16 diacid = O=C(O)CCCCCCCCCCCCCCC(=O)*; Hyp = O=C(O)[C@@H]1C[C@@H](O)CN1; NTA = O=C(O)CN(CC(=O)O)CC(=O)*; hCys = N[C@@H](CCS)C(=O)O; Orn = NCCC[C@H](N)C(=O)O; Dab = NCC[C@H](N)C(=O)O; Dap = NC[C@H](N)C(=O)O; AEEA = NCCOCCOCC(=O)O

B1: Ac-c[Asp-His-D-Phe-Arg-Trp-Dap]-Pro-Pro-Arg-Asp-Lys(BCMA)-Lys[(2-{2-[16-(tetrazol-5-yl)hexadecanoylamino]ethoxy}ethoxy)acetyl]-NH2 (peptide)
peptide: Ac-DH[dF]RW[Dap]PPRDK(NTA)K(X2)-NH2
modifications: lactam 1-6
SMILES: CC(=O)N[C@H]1CC(=O)NC[C@@H](C(=O)N2CCC[C@H]2C(=O)N2CCC[C@H]2C(=O)N[C@@H](CCCNC(=N)N)C(=O)N[C@@H](CC(=O)O)C(=O)N[C@@H](CCCCNC(=O)CN(CC(=O)O)CC(=O)O)C(=O)N[C@@H](CCCCNC(=O)COCCOCCNC(=O)CCCCCCCCCCCCCCCc2nn[nH]n2)C(N)=O)NC(=O)[C@H](Cc2c[nH]c3ccccc23)NC(=O)[C@H](CCCNC(=N)N)NC(=O)[C@@H](Cc2ccccc2)NC(=O)[C@H](Cc2c[nH]cn2)NC1=O
B2: Ac-c[homoCys-His-D-Phe-Arg-Trp-Cys]-Pro-Pro-Lys-Glu-Dap(BCMA)-Lys[(2-{2-[16-(tetrazol-5-yl)hexadecanoylamino]ethoxy}ethoxy)acetyl]-NH2 (peptide)
peptide: Ac-[hCys]H[dF]RWCPPKE[Dap](NTA)K([AEEA-Palmitoyl(16-(5-tetrazolyl))])-NH2
modifications: disulfide 1-6
SMILES: CC(=O)N[C@H]1CCSSC[C@@H](C(=O)N2CCC[C@H]2C(=O)N2CCC[C@H]2C(=O)N[C@@H](CCCCN)C(=O)N[C@@H](CCC(=O)O)C(=O)N[C@@H](CNC(=O)CN(CC(=O)O)CC(=O)O)C(=O)N[C@@H](CCCCNC(=O)COCCOCCNC(=O)CCCCCCCCCCCCCCCc2nnn[nH]2)C(N)=O)NC(=O)[C@H](Cc2c[nH]c3ccccc23)NC(=O)[C@H](CCCNC(=N)N)NC(=O)[C@@H](Cc2ccccc2)NC(=O)[C@H](Cc2c[nH]cn2)NC1=O
B3: Ac-c[Cys-Glu-His-D-Phe-Arg-Trp-Gly-Cys]-Pro-Pro-Lys-Glu-Glu-Lys({2-[2-(15-carboxypentadecanoylamino)ethoxy]ethoxy}acetyl)-NH2 (peptide)
peptide: Ac-CEH[dF]RWGCPPKEEK([AEEA-C16 diacid])-NH2
modifications: disulfide 1-8
SMILES: CC(=O)N[C@H]1CSSC[C@@H](C(=O)N2CCC[C@H]2C(=O)N2CCC[C@H]2C(=O)N[C@@H](CCCCN)C(=O)N[C@@H](CCC(=O)O)C(=O)N[C@@H](CCC(=O)O)C(=O)N[C@@H](CCCCNC(=O)COCCOCCNC(=O)CCCCCCCCCCCCCCC(=O)O)C(N)=O)NC(=O)CNC(=O)[C@H](Cc2c[nH]c3ccccc23)NC(=O)[C@H](CCCNC(=N)N)NC(=O)[C@@H](Cc2ccccc2)NC(=O)[C@H](Cc2c[nH]cn2)NC(=O)[C@H](CCC(=O)O)NC1=O
B4: Ac-c[homoCys-His-D-Phe-Arg-Trp-Cys]-Pro-Pro-Lys-Asp-Dap(BCMA)-Lys[(2-{2-[16-(tetrazol-5-yl)hexadecanoylamino]ethoxy}ethoxy)acetyl]-NH2 (peptide)
peptide: Ac-[hCys]H[dF]RWCPPKD[Dap](NTA)K([AEEA-Palmitoyl(16-(5-tetrazolyl))])-NH2
modifications: disulfide 1-6
SMILES: CC(=O)N[C@H]1CCSSC[C@@H](C(=O)N2CCC[C@H]2C(=O)N2CCC[C@H]2C(=O)N[C@@H](CCCCN)C(=O)N[C@@H](CC(=O)O)C(=O)N[C@@H](CNC(=O)CN(CC(=O)O)CC(=O)O)C(=O)N[C@@H](CCCCNC(=O)COCCOCCNC(=O)CCCCCCCCCCCCCCCc2nnn[nH]2)C(N)=O)NC(=O)[C@H](Cc2c[nH]c3ccccc23)NC(=O)[C@H](CCCNC(=N)N)NC(=O)[C@@H](Cc2ccccc2)NC(=O)[C@H](Cc2c[nH]cn2)NC1=O
B5: Ac-c[Dap-His-D-Phe-Arg-Trp-Asp]-Pro-Pro-Arg-Asp-Lys(BCMA)-Lys[(2-{2-[16-(tetrazol-5-yl)hexadecanoylamino]ethoxy}ethoxy)acetyl]-NH2 (peptide)
peptide: Ac-[Dap]H[dF]RWDPPRDK(NTA)K([AEEA-Palmitoyl(16-(5-tetrazolyl))])-NH2
modifications: lactam 1-6
SMILES: CC(=O)N[C@H]1CNC(=O)C[C@@H](C(=O)N2CCC[C@H]2C(=O)N2CCC[C@H]2C(=O)N[C@@H](CCCNC(=N)N)C(=O)N[C@@H](CC(=O)O)C(=O)N[C@@H](CCCCNC(=O)CN(CC(=O)O)CC(=O)O)C(=O)N[C@@H](CCCCNC(=O)COCCOCCNC(=O)CCCCCCCCCCCCCCCc2nnn[nH]2)C(N)=O)NC(=O)[C@H](Cc2c[nH]c3ccccc23)NC(=O)[C@H](CCCNC(=N)N)NC(=O)[C@@H](Cc2ccccc2)NC(=O)[C@H](Cc2c[nH]cn2)NC1=O
B6: Ac-c[Glu-His-D-Phe-Arg-Trp-Lys]-Hyp-Hyp-Arg-Asp-Lys(biscarboxymethyl)-Lys[(2-{2-[16-(tetrazol-5-yl)hexadecanoylamino]ethoxy}ethoxy)acetyl]-NH2 (peptide)
peptide: Ac-EH[dF]RWK[Hyp][Hyp]RD[Lys(CH2CO2H)2]K([AEEA-Palmitoyl(16-(5-tetrazolyl))])-NH2
modifications: lactam 1-6
SMILES: CC(=O)N[C@H]1CCC(=O)NCCCC[C@@H](C(=O)N2C[C@H](O)C[C@H]2C(=O)N2C[C@H](O)C[C@H]2C(=O)N[C@@H](CCCNC(=N)N)C(=O)N[C@@H](CC(=O)O)C(=O)N[C@@H](CCCCN(CC(=O)O)CC(=O)O)C(=O)N[C@@H](CCCCNC(=O)COCCOCCNC(=O)CCCCCCCCCCCCCCCc2nnn[nH]2)C(N)=O)NC(=O)[C@H](Cc2c[nH]c3ccccc23)NC(=O)[C@H](CCCNC(=N)N)NC(=O)[C@@H](Cc2ccccc2)NC(=O)[C@H](Cc2c[nH]cn2)NC1=O
B7: Ac-c[Lys-His-D-Phe-Arg-Trp-Asp]-Pro-Pro-His-Ser-Lys(biscarboxymethyl)-Ser-Ser-Glu-Lys({2-[2-(16-carboxyhexadecanoylamino)ethoxy]ethoxy}acetyl)-NH2 (peptide)
peptide: Ac-KH[dF]RWDPPHS[Lys(CH2CO2H)2]SSEK([AEEA-C17 diacid])-NH2
modifications: lactam 1-6
SMILES: CC(=O)N[C@H]1CCCCNC(=O)C[C@@H](C(=O)N2CCC[C@H]2C(=O)N2CCC[C@H]2C(=O)N[C@@H](Cc2c[nH]cn2)C(=O)N[C@@H](CO)C(=O)N[C@@H](CCCCN(CC(=O)O)CC(=O)O)C(=O)N[C@@H](CO)C(=O)N[C@@H](CO)C(=O)N[C@@H](CCC(=O)O)C(=O)N[C@@H](CCCCNC(=O)COCCOCCNC(=O)CCCCCCCCCCCCCCCC(=O)O)C(N)=O)NC(=O)[C@H](Cc2c[nH]c3ccccc23)NC(=O)[C@H](CCCNC(=N)N)NC(=O)[C@@H](Cc2ccccc2)NC(=O)[C@H](Cc2c[nH]cn2)NC1=O

Target: T1, MC1 receptor (UniProt Q01726 1-317, limits assumed)
T1 construct: whole, on cells; also called melanocortin receptor subtype 1; melanocortin receptor 1
Experiment: 125I-NDP-α-MSH displacement, BHK-MC1 membranes (Assay IV);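 also: membrane incubations stopped by filtration, retained radioactivity counted, Ki fitted by nonlinear regression to binding curves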
Procedure: The MC1 receptor binding assay was performed on BHK cell membranes stably expressing the MC1 receptor. […] Test compounds were dissolved in DMSO. […] Alternatively, HSA may be substituted with ovalbumin. The samples were incubated at 30° C. for 90 min. in Costar round-bottom microtiter plates. Incubation was terminated by filtration on a Packard harvester filtermate. […] The filters were washed with ice-cold 0.9% NaCl 8-10 times. […] The plates were counted in a Topcounter (1 min/well).
(§1) The data were analysed by non-linear regression analysis of binding curves, using the Windows™ program GraphPad™ Prism (GraphPad Software, USA).

T1 sequence (Q01726 whole entry): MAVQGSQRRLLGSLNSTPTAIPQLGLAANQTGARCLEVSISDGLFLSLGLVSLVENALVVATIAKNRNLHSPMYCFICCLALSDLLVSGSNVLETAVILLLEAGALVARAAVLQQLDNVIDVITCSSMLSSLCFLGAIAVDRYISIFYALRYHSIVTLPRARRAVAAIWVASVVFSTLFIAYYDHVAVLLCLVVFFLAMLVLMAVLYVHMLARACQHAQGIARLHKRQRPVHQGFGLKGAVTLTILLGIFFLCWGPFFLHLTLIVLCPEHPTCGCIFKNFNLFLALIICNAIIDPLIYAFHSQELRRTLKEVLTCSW

| Binder | Ki [nM] |
| --- | --- |
| Ac-DH[dF]RW[Dab]PPRDK(biscarboxymethyl(4))K(X2)-NH2 (lactam 1-6) | 5140 |
| B1 | 7980 |
| Ac-EH[dF]RW[Orn][Hyp][Hyp]RDK(biscarboxymethyl)K(X2)-NH2 (lactam 1-6) | 7230 |
| Ac-[Orn]H[dF]RWDPPREK(biscarboxymethyl)SS-X5 (lactam 1-6) | 2500 |
| B2 | 177 |
| B3 | 7220 |
| B4 | 7540 |
| Ac-EH[dF]RW[Orn]PPRDK(biscarboxymethyl)K(X2)-NH2 (lactam 1-6) | 5240 |
| Ac-[Orn]H[dF]RWDPPREK(biscarboxymethyl)K(X2)-NH2 (lactam 1-6) | 2770 |
| B5 | 5550 |
| Ac-[Orn]H[dF]RWDPPHEK(biscarboxymethyl)K(X4)-NH2 (lactam 1-6) | 4830 |
| Ac-[Dab]H[dF]RWDPPRDK(biscarboxymethyl(3))K([AEEA-Palmitoyl(16-(5-tetrazolyl))])-NH2 (lactam 1-6) | 5740 |
| Ac-[Orn]H[dF]RWEPPRDK(bis(carboxymethyl))K([AEEA-Palmitoyl(16-(5-tetrazolyl))])-NH2 (lactam 1-6) | 433 |
| Ac-[Orn]H[dF]RWDPSSSK(biscarboxymethyl)SSK(X3)-NH2 (lactam 1-6) | 3890 |
| Ac-[hCys]H[dF]RWCSPHEK(bis(carboxymethyl))K([AEEA-C18 diacid])-NH2 (disulfide 1-6) | 442 |
| Ac-[hCys]S[dF]RWCPPKEK(biscarboxymethyl″)K(X2)-NH2 (disulfide 1-6) | 2060 |
| Ac-[hCys]H[dF]RWCSPKEK(bis(carboxymethyl))K([AEEA-C16 diacid])-NH2 (disulfide 1-6) | 169 |
| Ac-[Dap]H[dF]RWDPPRDK(biscarboxymethyl(3))K([AEEA-Palmitoyl(16-(5-tetrazolyl))])-NH2 (lactam 1-6) | 1830 |
| Ac-[Dap]H[dF]RWEPPRDK(biscarboxymethyl(3))K([AEEA-Palmitoyl(16-(5-tetrazolyl))])-NH2 (lactam 1-6) | 3850 |
| Ac-[Orn]H[dF]RWDPPRDK(biscarboxymethyl)K(X2)-NH2 (lactam 1-6) | 2340 |
| Ac-[Orn]H[dF]RWDPPHEK(biscarboxymethyl)K(X3)-NH2 (lactam 1-6) | 8600 |
| Ac-[Orn]H[dF]RWDPPHEK(biscarboxymethyl)K(X6)-NH2 (lactam 1-6) | 7370 |

Target: T2, human MC4 receptor (human, UniProt P32245 1-332)
T2 construct: whole, on cells; Assayed as membranes of BHK cells stably expressing the receptor; also called melanocortin receptor subtype 4; melanocortin receptor 4
Experiment: 125I-NDP-α-MSH displacement, BHK-human MC4 membranes (Assay V);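 also: Filter-retained radioactivity read by gamma counting, with affinity obtained through non-linear regression fitting of the binding curves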
Procedure: The membranes were prepared from frozen or fresh cells that were homogenized in 20 mM HEPES pH 7.1, 5 mM MgCl₂ and 1 mg/ml bacitracin and centrifuged at 15000 rpm at 4° C., 10 min in a Sorvall RC 5B plus, SS-34 rotor. The supernatant was discarded, and the pellets were re-suspended in buffer, homogenized and centrifuged two more times. The final pellets were resuspended in the buffer mentioned above, and the protein concentration was measured and adjusted with buffer to 14 to 17 mg/ml and the membrane preparation were kept at −80° C. until assay. The assay was run directly on a dilution of this cell membrane suspension, without any further preparation. The BHK cell membranes are kept at −80° C. until assay, and the assay is run directly on a dilution of this cell membrane suspension, without further preparation. The suspension is diluted to give maximally 10% specific binding, i.e. to approx. 50-100 fold dilution. […] Test compounds were dissolved in DMSO and diluted in binding buffer. Radiolabelled ligand and membranes were diluted in binding buffer. The incubation was stopped by dilution with 2×100 μl ice-cold 0.9% NaCl. The radioactivity retained on the filters was counted using a Cobra II auto gamma counter.
as §1

T2 sequence (P32245 whole entry): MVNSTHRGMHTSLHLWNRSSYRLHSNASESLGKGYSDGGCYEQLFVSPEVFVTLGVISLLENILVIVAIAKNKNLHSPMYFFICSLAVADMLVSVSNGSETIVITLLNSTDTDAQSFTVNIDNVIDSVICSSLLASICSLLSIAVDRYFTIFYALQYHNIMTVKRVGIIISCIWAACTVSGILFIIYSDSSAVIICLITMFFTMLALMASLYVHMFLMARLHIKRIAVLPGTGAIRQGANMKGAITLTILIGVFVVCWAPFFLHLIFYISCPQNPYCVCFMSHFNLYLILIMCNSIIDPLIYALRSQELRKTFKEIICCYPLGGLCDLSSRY

| Binder | Ki [nM] |
| --- | --- |
| Ac-DH[dF]RW[Dab]PPRDK(biscarboxymethyl(4))K(X2)-NH2 (lactam 1-6) | 1.33 |
| B1 | 107 |
| Ac-EH[dF]RW[Orn][Hyp][Hyp]RDK(biscarboxymethyl)K(X2)-NH2 (lactam 1-6) | 3.25 |
| B6 | 21 |
| B7 | 14 |
| Ac-[Orn]H[dF]RWDPPREK(biscarboxymethyl)SS-X5 (lactam 1-6) | 0.93 |
| B2 | 0.6 |
| B3 | 6.2 |
| B4 | 0.64 |
| Ac-EH[dF]RW[Orn]PPRDK(biscarboxymethyl)K(X2)-NH2 (lactam 1-6) | 1.42 |
| Ac-[Orn]H[dF]RWDPPREK(biscarboxymethyl)K(X2)-NH2 (lactam 1-6) | 0.33 |
| B5 | 8.95 |
| Ac-[Orn]H[dF]RWDPPHEK(biscarboxymethyl)K(X4)-NH2 (lactam 1-6) | 1.05 |
| Ac-[Dab]H[dF]RWDPPRDK(biscarboxymethyl(3))K([AEEA-Palmitoyl(16-(5-tetrazolyl))])-NH2 (lactam 1-6) | 31 |
| Ac-[Orn]H[dF]RWEPPRDK(bis(carboxymethyl))K([AEEA-Palmitoyl(16-(5-tetrazolyl))])-NH2 (lactam 1-6) | 3.53 |
| Ac-[Orn]H[dF]RWDPSSSK(biscarboxymethyl)SSK(X3)-NH2 (lactam 1-6) | 1.2 |
| Ac-[hCys]H[dF]RWCSPHEK(bis(carboxymethyl))K([AEEA-C18 diacid])-NH2 (disulfide 1-6) | 0.55 |
| Ac-[hCys]S[dF]RWCPPKEK(biscarboxymethyl″)K(X2)-NH2 (disulfide 1-6) | 10 |
| Ac-[hCys]H[dF]RWCSPKEK(bis(carboxymethyl))K([AEEA-C16 diacid])-NH2 (disulfide 1-6) | 3.43 |
| Ac-[Dap]H[dF]RWDPPRDK(biscarboxymethyl(3))K([AEEA-Palmitoyl(16-(5-tetrazolyl))])-NH2 (lactam 1-6) | 5.16 |
| Ac-[Dap]H[dF]RWEPPRDK(biscarboxymethyl(3))K([AEEA-Palmitoyl(16-(5-tetrazolyl))])-NH2 (lactam 1-6) | 0.7 |
| Ac-[Orn]H[dF]RWDPPRDK(biscarboxymethyl)K(X2)-NH2 (lactam 1-6) | 0.85 |
| Ac-[Orn]H[dF]RWDPPHEK(biscarboxymethyl)K(X3)-NH2 (lactam 1-6) | 3.4 |
| Ac-[Orn]H[dF]RWDPPHEK(biscarboxymethyl)K(X6)-NH2 (lactam 1-6) | 1.8 |
